Results from patent US7648703.

Molecular target: Ep-CAM antigen (human pan-carcinoma antigen) (human) (UniProt P16422)
Experiment: antibody binding to HT29 adenocarcinoma cells after 15 minute incubation; drug-treated against control cells

UniProt P16422, sequence (P16422 24-314): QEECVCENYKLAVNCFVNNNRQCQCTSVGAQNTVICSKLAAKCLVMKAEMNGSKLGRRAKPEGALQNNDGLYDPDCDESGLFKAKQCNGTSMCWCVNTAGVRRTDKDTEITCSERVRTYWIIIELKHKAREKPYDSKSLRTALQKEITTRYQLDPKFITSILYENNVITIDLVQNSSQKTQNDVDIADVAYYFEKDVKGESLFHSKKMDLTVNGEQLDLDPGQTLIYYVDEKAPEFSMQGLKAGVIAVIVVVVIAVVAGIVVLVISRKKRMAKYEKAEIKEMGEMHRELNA

B1: Panorex (17-1A mouse monoclonal antibody) (antibody, INN chains, looked up, V domains shown)
VH: QVQLQQSGAELVRPGTSVKVSCKASGYAFTNYLIEWVKQRPGQGLEWIGVINPGSGGTNYNEKFKGKATLTADKSSSTAYMQLSSLTSDDSAVYFCARDGPWFAYWGQGTLVTVSA
VL: NIVMTQSPKSMSMSVGERVTLTCKASENVVTYVSWYQQKPEQSPKLLIYGASNRYTGVPDRFTGSGSATDFTLTISSVQAEDLADYHCGQGYSYPYTFGGGTKLEIK
An increase in antibody binding (cells treated with Navelbine plus Cisplatin against control cells) of 34% and an increase in antibody binding (cells treated with Taxol against control cells) of 8% were found for B1 in this work.
